Biological target: HLA-A*02 (Homo sapiens, UniProt P04439, D140Y/D185E/D98H/E176V/E277Q/G131W/G231S/I119V/I121R/I166T/I218V/N151K/N90K/P208A/P217A/Q86G/Q94H/R138H/R169H)
Experiment: MHC binding assay, UV-ligand exchange with beta2m ELISA, HLA-A*02
Conditions: peptide exchange yield
From the text: Candidate peptides for T cell based therapies according to the present invention were further tested for their MHC binding capacity (affinity). The individual peptide-MHC complexes were produced by UV-ligand exchange, where a UV-sensitive peptide is cleaved upon UV-irradiation, and exchanged with the peptide of interest as analyzed. Only peptide candidates that can effectively bind and stabilize the peptide-receptive MHC molecules prevent dissociation of the MHC complexes. To determine the yield of the exchange reaction, an ELISA was performed based on the detection of the light chain (β2m) of stabilized MHC complexes. The assay was performed as generally described in Rodenko et al. (Rodenko et al., 2006).
96 well MAXISorp plates (NUNC) were coated over night with 2 ug/ml streptavidin in PBS at room temperature, washed 4× and blocked for 1 h at 37° C. in 2% BSA containing blocking buffer. […] Peptide-MHC monomers of the UV-exchange reaction were diluted 100 fold in blocking buffer. Samples were incubated for 1 h at 37° C., washed four times, incubated with 2 ug/ml HRP conjugated anti-β2m for 1 h at 37° C., washed again and detected with TMB solution that is stopped with […]. Absorption was measured at 450 nm. Candidate peptides that show a high exchange yield (preferably higher than 50%, most preferred higher than 75%) are generally preferred for a generation and production of antibodies or fragments thereof, and/or T cell receptors or fragments thereof, as they show sufficient avidity to the MHC molecules and prevent dissociation of the MHC complexes.

MHC class I binding score, Peptide exchange	Substance
++ (20%-49% = ++)	1 (PLWGKVFYL; listed as Homo sapiens) [compound 1]
+++ (50%-75% = +++)	3 (TLLGKQVTL; listed as Homo sapiens) [compound 3]
+++ (50%-75% = +++)	4 (ELAEIVFKV; listed as Homo sapiens) [compound 4]
+++ (50%-75% = +++)	5 (SLFGQEVYC; listed as Homo sapiens) [compound 5]
+++ (50%-75% = +++)	6 (FLDPAQRDL; listed as Homo sapiens) [compound 6]
+++ (50%-75% = +++)	8 (KLGPFLLNA; listed as Homo sapiens) [compound 8]
++ (20%-49% = ++)	10 (KTLDVFNIIL; listed as Homo sapiens) [compound 10]
++ (20%-49% = ++)	11 (GVLKVFLENV; listed as Homo sapiens) [compound 11]
++ (20%-49% = ++)	12 (GLIYEETRGV; listed as Homo sapiens) [compound 12]
+++ (50%-75% = +++)	13 (VLRDNIQGI; listed as Homo sapiens) [compound 13]
++ (20%-49% = ++)	14 (LLDHLSFINKI; listed as Homo sapiens) [compound 14]
++ (20%-49% = ++)	16 (HLYNNEEQV; listed as Homo sapiens) [compound 16]
+++ (50%-75% = +++)	18 (YVLNEEDLQKV; listed as Homo sapiens) [compound 18]
+++ (50%-75% = +++)	19 (TLLPTVLTL; listed as Homo sapiens) [compound 19]
+++ (50%-75% = +++)	20 (ALDGHLYAI; listed as Homo sapiens) [compound 20]
++++ (>=75% = ++++)	21 (SLYHRVLLY; listed as Homo sapiens) [compound 21]
++++ (>=75% = ++++)	22 (MLSDLTLQL; listed as Homo sapiens) [compound 22]
+ (<20% = +)	23 (AQTVVVIKA; listed as Homo sapiens) [compound 23]
+++ (50%-75% = +++)	24 (FLWNGEDSAL; listed as Homo sapiens) [compound 24]
++ (20%-49% = ++)	25 (IQADDFRTL; listed as Homo sapiens) [compound 25]
+++ (50%-75% = +++)	26 (KVDGVVIQL; listed as Homo sapiens) [compound 26]
+++ (50%-75% = +++)	27 (KVFGDLDQV; listed as Homo sapiens) [compound 27]
+++ (50%-75% = +++)	28 (TLYSMDLMKV; listed as Homo sapiens) [compound 28]

MHC class I binding score, Peptide exchange	Substance
+++ (50%-75% = +++)	29 (TLCNKTFTA; listed as Homo sapiens) [compound 29]
++++ (>=75% = ++++)	31 (ALSDETKNNWEV; listed as Homo sapiens) [compound 31]
+++ (50%-75% = +++)	32 (ILADEAFFSV; listed as Homo sapiens) [compound 32]
+++ (50%-75% = +++)	33 (LLLPLLPPLSPSLG; listed as Homo sapiens) [compound 33]
++ (20%-49% = ++)	35 (YVLPKLYVKL; listed as Homo sapiens) [compound 35]
++++ (>=75% = ++++)	36 (KLYGIEIEV; listed as Homo sapiens) [compound 36]
+++ (50%-75% = +++)	37 (ALINDILGELVKL; listed as Homo sapiens) [compound 37]
+++ (50%-75% = +++)	38 (KMQEDLVTL; listed as Homo sapiens) [compound 38]
+++ (50%-75% = +++)	39 (ALMAVVSGL; listed as Homo sapiens) [compound 39]
+++ (50%-75% = +++)	40 (SLLALPQDLQA; listed as Homo sapiens) [compound 40]
+++ (50%-75% = +++)	41 (FVLPLVVTL; listed as Homo sapiens) [compound 41]
+++ (50%-75% = +++)	42 (VLSPFILTL; listed as Homo sapiens) [compound 42]
++ (20%-49% = ++)	44 (GLLWQIIKV; listed as Homo sapiens) [compound 44]
+++ (50%-75% = +++)	45 (VLGPTPELV; listed as Homo sapiens) [compound 45]
+++ (50%-75% = +++)	46 (SLAKHGIVAL; listed as Homo sapiens) [compound 46]
+++ (50%-75% = +++)	47 (GLYQAQVNL; listed as Homo sapiens) [compound 47]
++ (20%-49% = ++)	48 (TLDHKPVTV; listed as Homo sapiens) [compound 48]
+++ (50%-75% = +++)	49 (LLDESKLTL; listed as Homo sapiens) [compound 49]
++ (20%-49% = ++)	50 (EYALLYHTL; listed as Homo sapiens) [compound 50]
+++ (50%-75% = +++)	51 (LLLDGDFTL; listed as Homo sapiens) [compound 51]
+++ (50%-75% = +++)	52 (ELLSSIFFL; listed as Homo sapiens) [compound 52]
+++ (50%-75% = +++)	53 (SLLSHVIVA; listed as Homo sapiens) [compound 53]
+++ (50%-75% = +++)	54 (FINPKGNWLL; listed as Homo sapiens) [compound 54]

MHC class I binding score, Peptide exchange	Substance
++ (20%-49% = ++)	55 (IASAIVNEL; listed as Homo sapiens) [compound 55]
++ (20%-49% = ++)	56 (KILDLTRVL; listed as Homo sapiens) [compound 56]
++ (20%-49% = ++)	57 (VLISSTVRL; listed as Homo sapiens) [compound 57]
++ (20%-49% = ++)	58 (ALDDSLTSL; listed as Homo sapiens) [compound 58]
+++ (50%-75% = +++)	59 (ALTKILAEL; listed as Homo sapiens) [compound 59]
++ (20%-49% = ++)	60 (FLIDTSASM; listed as Homo sapiens) [compound 60]
++ (20%-49% = ++)	61 (HLPDFVKQL; listed as Homo sapiens) [compound 61]
+++ (50%-75% = +++)	62 (SLFNQEVQI; listed as Homo sapiens) [compound 62]
+ (<20% = +)	63 (TLSSERDFAL; listed as Homo sapiens) [compound 63]
++ (20%-49% = ++)	64 (GLSSSSYEL; listed as Homo sapiens) [compound 64]
+++ (50%-75% = +++)	65 (KLDGICWQV; listed as Homo sapiens) [compound 65]
+++ (50%-75% = +++)	66 (FITDFYTTV; listed as Homo sapiens) [compound 66]
++ (20%-49% = ++)	67 (GVIETVTSL; listed as Homo sapiens) [compound 67]
+++ (50%-75% = +++)	69 (GIYDGILHSI; listed as Homo sapiens) [compound 69]
+++ (50%-75% = +++)	70 (GLFSQHFNL; listed as Homo sapiens) [compound 70]
+++ (50%-75% = +++)	71 (GLITVDIAL; listed as Homo sapiens) [compound 71]
+++ (50%-75% = +++)	72 (GMIGFQVLL; listed as Homo sapiens) [compound 72]
++ (20%-49% = ++)	74 (ILDETLENV; listed as Homo sapiens) [compound 74]
+++ (50%-75% = +++)	75 (ILDNVKNLL; listed as Homo sapiens) [compound 75]
+++ (50%-75% = +++)	76 (ILLDESNFNHFL; listed as Homo sapiens) [compound 76]
+++ (50%-75% = +++)	77 (IVLSTIASV; listed as Homo sapiens) [compound 77]
+++ (50%-75% = +++)	78 (LLWGHPRVA; listed as Homo sapiens) [compound 78]
